Measurements from patent US20260125457A1 (Janssen / Centocor, published 2026).

What was measured:
[1] = target: T1, Avi/his-CalR-Ins5 (CALRW28.004) (human, UniProt P27797 18-417, limits assumed); experiment: SPR, forced degradation: Chem Ox
T1 construct: also called human CALRins5
T1 sequence (looked up): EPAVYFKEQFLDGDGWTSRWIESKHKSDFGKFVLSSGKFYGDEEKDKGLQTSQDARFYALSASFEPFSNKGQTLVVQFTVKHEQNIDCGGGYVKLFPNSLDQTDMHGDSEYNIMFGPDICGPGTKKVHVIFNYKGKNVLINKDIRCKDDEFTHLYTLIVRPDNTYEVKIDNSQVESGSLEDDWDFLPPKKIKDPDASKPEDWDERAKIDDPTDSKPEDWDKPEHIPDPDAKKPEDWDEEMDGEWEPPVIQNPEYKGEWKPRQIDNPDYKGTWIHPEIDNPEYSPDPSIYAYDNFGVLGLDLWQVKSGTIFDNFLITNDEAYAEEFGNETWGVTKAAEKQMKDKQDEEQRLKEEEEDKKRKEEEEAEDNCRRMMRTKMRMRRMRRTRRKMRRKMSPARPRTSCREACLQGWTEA

[2] = target: T2, Flag/6xhis-CALRdel52 (CALRW12.007) (human, UniProt P27797 18-417); experiment: SPR, forced degradation: Chem Ox
T2 construct: also called human CALRdel52
T2 sequence (looked up): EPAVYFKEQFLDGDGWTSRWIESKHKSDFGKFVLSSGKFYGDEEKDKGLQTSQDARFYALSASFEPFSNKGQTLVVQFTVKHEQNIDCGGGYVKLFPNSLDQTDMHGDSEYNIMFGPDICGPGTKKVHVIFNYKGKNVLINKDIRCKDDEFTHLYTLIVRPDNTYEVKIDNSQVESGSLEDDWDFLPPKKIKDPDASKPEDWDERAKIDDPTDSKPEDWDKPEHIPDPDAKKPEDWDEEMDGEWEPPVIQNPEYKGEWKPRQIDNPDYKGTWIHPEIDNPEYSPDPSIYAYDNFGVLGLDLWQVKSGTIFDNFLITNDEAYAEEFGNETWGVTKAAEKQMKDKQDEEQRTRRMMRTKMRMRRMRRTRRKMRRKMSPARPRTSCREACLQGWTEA

[3] = target: T3, CD3EG-HSA-6xHis (CD3W220.002) (human, UniProt P07766 22-118; P09693 23-103); experiment: SPR, forced degradation: Chem Ox
T3 construct: also called human CD3; not shown: human serum albumin (HSA); 6xHis tag

[4] = target: T1, Avi/his-CalR-Ins5 (CALRW28.004); experiment: SPR, forced degradation: pH 8.5
[5] = target: T2, Flag/6xhis-CALRdel52 (CALRW12.007); experiment: SPR, forced degradation: pH 8.5
[6] = target: T3, CD3EG-HSA-6xHis (CD3W220.002); experiment: SPR, forced degradation: pH 8.5
[7] = target: T4, thrombopoietin receptor (MPL) on cells without CALRmut (UniProt P40238 26-635, limits assumed); experiment: flow cytometry on ELF-153 MPL cells, 1 h at 37 C, AF647 secondary antibody, Geometric Mean
T4 construct: whole, on cells; endogenous on healthy donor CD34+ cells; also called TPOR
T4 sequence (looked up): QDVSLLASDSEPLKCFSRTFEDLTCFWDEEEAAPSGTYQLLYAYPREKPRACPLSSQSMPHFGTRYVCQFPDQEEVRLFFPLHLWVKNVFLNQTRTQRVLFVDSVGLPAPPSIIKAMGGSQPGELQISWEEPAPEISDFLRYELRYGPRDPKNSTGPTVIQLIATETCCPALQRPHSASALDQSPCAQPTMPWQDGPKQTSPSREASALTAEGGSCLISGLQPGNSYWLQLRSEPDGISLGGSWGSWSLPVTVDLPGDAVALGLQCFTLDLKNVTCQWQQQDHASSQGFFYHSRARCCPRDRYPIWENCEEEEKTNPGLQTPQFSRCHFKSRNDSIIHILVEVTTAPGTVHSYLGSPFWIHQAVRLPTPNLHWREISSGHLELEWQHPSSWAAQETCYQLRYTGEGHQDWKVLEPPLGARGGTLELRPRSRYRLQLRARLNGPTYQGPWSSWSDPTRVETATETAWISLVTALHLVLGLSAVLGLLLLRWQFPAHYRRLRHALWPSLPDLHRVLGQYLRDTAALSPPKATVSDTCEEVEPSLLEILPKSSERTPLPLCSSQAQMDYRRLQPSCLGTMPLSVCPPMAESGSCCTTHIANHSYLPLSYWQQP

T3 sequence (P07766 other isoform, or with tags, fused parts or gaps): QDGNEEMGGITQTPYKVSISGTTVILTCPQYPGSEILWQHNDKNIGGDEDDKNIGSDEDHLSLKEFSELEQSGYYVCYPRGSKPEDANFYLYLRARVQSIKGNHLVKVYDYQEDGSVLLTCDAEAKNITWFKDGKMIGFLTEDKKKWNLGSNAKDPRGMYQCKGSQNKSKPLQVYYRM

- % Active [1]: 94%
- Kd [1]: 0.0408 nM
- % Active [2]: 94%
- Kd [2]: 0.07 nM
- % Active [3]: 95%
- Kd [3]: 0.306 nM
- % Active [4]: 97%
- Kd [4]: 0.0313 nM
- % Active [5]: 104%
- Kd [5]: 0.251 nM
- % Active [6]: 93%
- Kd [6]: 0.28 nM
- binding result [7]: no binding (tested: 100 nM)
B1: C3CRB73 CALRmut x CD3 bispecific antibody (bispecific antibody, human IgG1, kappa, L234A L235A)
heavy: EVQLLESGGGLVQPGGSLRLSCAVSGIDLSNNAISWVRQAPGKGLEYVGVIGNTGDTYYADSAKGRFTISRDSSKTTLYLQMNSLRAEDTAVYFCVRGPPSYSSSVKNIWGQGTLVTVSSASTKGPSVFPLAPSSKSTSGGTAALGCLVKDYFPEPVTVSWNSGALTSGVHTFPAVLQSSGLYSLSSVVTVPSSSLGTQTYICNVNHKPSNTKVDKKVEPKSCDKTHTCPPCPAPEAAGGPSVFLFPPKPKDTLMISRTPEVTCVVVSVSHEDPEVKFNWYVDGVEVHNAKTKPREEQYNSTYRVVSVLTVLHQDWLNGKEYKCKVSNKALPAPIEKTISKAKGQPREPQVYTLPPSREEMTKNQVSLSCAVKGFYPSDIAVEWESNGQPENNYKTTPPVLDSDGSFFLVSKLTVDKSRWQQGNVFSCSVMHEALHNRFTQKSLSLSPGK
light: DIQMTQSPSSVSASVGDRVTITCQSSQSVYNNNWLSWLQQKPGKAPKRLIYDASKLESGVPSRFSGSGSGTDFTLTISSVQPEDAATYYCAGGFTGNVYTFGGGTKVEIKRTVAAPSVFIFPPSDEQLKSGTASVVCLLNNFYPREAKVQWKVDNALQSGNSQESVTEQDSKDSTYSLSSTLTLSKADYEKHKVYACEVTHQGLSSPVTKSFNRGEC
scFv: DIQMTQSPSSLSASVGDRVTITCRARQSIGTAIHWYQQKPGCAPKLLIKYASESISGVPSRFSGSGSGTDFTLTISSLQPEDFATYYCQQSGSWPYTFGQGTKLEIKGGGSGGSGGCPPCGGSGGEVQLVESGGGLVKPGGSLRLSCAASGFTFSRYNMNWVRQAPGKGLEWVSSISTSSNYIYYADSVKGRFTFSRDNAKNSLDLQMSGLRAEDTAIYYCTRGWGPFDYWGCGTLVTVSSEPKSSDKTHTCPPCPAPEAAGGPSVFLFPPKPKDTLMISRTPEVTCVVVSVSHEDPEVKFNWYVDGVEVHNAKTKPREEQYNSTYRVVSVLTVLHQDWLNGKEYKCKVSNKALPAPIEKTISKAKGQPREPQVYTLPPSREEMTKNQVSLWCLVKGFYPSDIAVEWESNGQPENNYKTTPPVLDSDGSFFLYSKLTVDKSRWQQGNVFSCSVMHEALHNHYTQKSLSLSPGK
notes: IgG1-AAS; also called JNJ-88549968; CALRB421 Fab x CD3 spFv
